From PMC8336515, “OTUD7B Deubiquitinates LSD1 to Govern Its Binding Partner Specificity, Homeostasis, and Breast Cancer Metastasis” (Advanced Science, 2021) come the findings set out here.

In the test the target is recombinant LSD1 (UniProt O60341 1-852). The test is described as follows: pull-down; recombinant proteins in vitro (Figure S1F); GST fusion on glutathione-sepharose beads, NETN buffer, 4 °C for 2 h. To be noted: both partners purified.

B1: recombinant OTUD7B (enzyme)
chain: MTLDMDAVLSDFVRSTGAEPGLARDLLEGKNWDVNAALSDFEQLRQVHAGNLPPSFSEGSGGSRTPEKGFSDREPTRPPRPILQRQDDIVQEKRLSRGISHASSSIVSLARSHVSSNGGGGGSNEHPLEMPICAFQLPDLTVYNEDFRSFIERDLIEQSMLVALEQAGRLNWWVSVDPTSQRLLPLATTGDGNCLLHAASLGMWGFHDRDLMLRKALYALMEKGVEKEALKRRWRWQQTQQNKESGLVYTEDEWQKEWNELIKLASSEPRMHLGTNGANCGGVESSEEPVYESLEEFHVFVLAHVLRRPIVVVADTMLRDSGGEAFAPIPFGGIYLPLEVPASQCHRSPLVLAYDQAHFSALVSMEQKENTKEQAVIPLTDSEYKLLPLHFAVDPGKGWEWGKDDSDNVRLASVILSLEVKLHLLHSYMNVKWIPLSSDAQAPLAQPESPTASAGDEPRSTPESGDSDKESVGSSSTSNEGGRRKEKSKRDREKDKKRADSVANKLGSFGKTLGSKLKKNMGGLMHSKGSKPGGVGTGLGGSSGTETLEKKKKNSLKSWKGGKEEAAGDGPVSEKPPAESVGNGGSKYSQEVMQSLSILRTAMQGEGKFIFVGTLKMGHRHQYQEEMIQRYLSDAEERFLAEQKQKEAERKIMNGGIGGGPPPAKKPEPDAREEQPTGPPAESRAMAFSTGYPGDFTIPRPSGGGVHCQEPRRQLAGGPCVGGLPPYATFPRQCPPGRPYPHQDSIPSLEPGSHSKDGLHRGALLPPPYRVADSYSNGYREPPEPDGWAGGLRGLPPTQTKCKQPNCSFYGHPETNNFCSCCYREELRRREREPDGELLVHRF
notes: OTUD7B; cDNA in pGEX4T1 (GST) or pET21b (His); also called GST-OTUD7B; His-OTUD7B; source: recombinant; GST fusions expressed in BL21 and purified by glutathione-sepharose beads; not shown: GST or His (GST-OTUD7B and His-OTUD7B were both cloned)
Turning to B1, the binding result was “binds”.
